# Measured values as given in paper PMC2694808.
# Where “and” joins values, the source holds several entries; their conditions need not be identical. Identical values can stand only once.
# Test system: Hfq
# Assay: EMSA
# Details: 40 or 100 mM NH4Cl, 10 mM Tris-HCl pH 7.5, 5 mM Mg acetate, 0.1 mM DTT, 37°C (EMSA 10 min; SPR Biacore 2000)
substance,measurement,value
invE RNA probe (140 nt),K half,1.7 nM and 6.2 nM
